Results on five sequences are retold here after the supplement of paper PMC12455559.

The nature of data set [1]: PET hydrolysis, aromatic products released after 48 h (umol product/mg enzyme); higher = more PET depolymerization activity. The method, boiled down: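 The measure of PET hydrolysis activity is aromatic product released into the supernatant, given per mg enzyme. Nickel-purified, SUMO-cleaved enzyme without tag was added at 5 μg (50 μL) to 3.5 mg amorphous PET film or crystalline PET powder in 450 μL of citrate, phosphate or glycine buffer spanning pH 4.5 to 8.5. After 48 h at 40 or 60 °C in sealed plates without shaking, absorbance at 260 and 280 nm was taken against buffer blanks.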

Data set [2] can be described thus: purified protein yield per well (BCA); higher = higher soluble expression. The method, boiled down: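 Expression was done in E. coli C41(DE3), using 2 mL autoinduction cultures with 100 µg/mL kanamycin incubated at 37 °C for 2 h and at 18 °C for 40 h. Protein was purified on Ni-charged magnetic beads and released by SUMO protease cleavage. Yield of purified protein per well was measured with the Pierce Rapid Gold BCA kit; values below 25 ug (0.1 mg/mL) are below detection.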

The nature of data set [3]: melting temperature (DSF); higher = more thermostable. In a few lines: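 Candidate enzymes were expressed in E. coli C41(DE3), purified on nickel beads and released by SUMO protease cleavage. For differential scanning fluorimetry, 45 μL enzyme (0 to 0.3 mg/mL) was mixed with 5 μL 5X Sypro Orange in sealed PCR plates on a Bio-Rad CFX96 instrument. Fluorescence was read from 25 °C in steps of 0.3 °C per cycle (ramp 0.3 °C/s) for 250 cycles. The read-out is melting temperature.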

Where [4] appears, read: substrate: aFilm, 40 °C, pH 5.5.
[5] abbreviates: substrate: aFilm, 40 °C, pH 6.5.
The mark [6] stands for this setting: substrate: aFilm, 40 °C, pH 7.5.
[7] abbreviates: substrate: aFilm, 60 °C, pH 5.5.
[8] abbreviates: substrate: aFilm, 60 °C, pH 6.5.
[9] abbreviates: substrate: aFilm, 60 °C, pH 7.5.
Setting [10] is: substrate: cryPow, 40 °C, pH 5.5.
Where [11] appears, read: substrate: cryPow, 40 °C, pH 6.5.
Setting [12] is: substrate: cryPow, 40 °C, pH 7.5.
Setting [13] is: substrate: cryPow, 60 °C, pH 5.5.
The mark [14] stands for this setting: substrate: cryPow, 60 °C, pH 6.5.
The mark [15] stands for this setting: substrate: cryPow, 60 °C, pH 7.5.
Where [16] appears, read: substrate: aFilm, 40 °C, pH 4.5.
Where [17] appears, read: substrate: aFilm, 60 °C, pH 4.5.
Setting [18] is: substrate: cryPow, 40 °C, pH 4.5.
Where [19] appears, read: substrate: cryPow, 60 °C, pH 4.5.

± gives the standard deviation of the averaged measurements.

As to “ADNPFQRGPDPTRASVAAQTGPFANASVSVPTGYGFNGGRIYYPTDTSQGTFGAIAISPGYTALFSAELAWMGPWLASHGFVVIGIETNSRNDFDTARGTQLLAALDYLTQQSPVRDRVDPNRLAVSGHSMGGGGALSAASRRSSLKAAVGITPYSPSSNLANDRVPTMIISGQADTVVTPSYALGLYNSLPATTESVYLEVAGGDHGFMVGRSNPVMIRTMLPFVKMFIDNDTRYSQFLCPLADSSGVVTYRSTCPLLPGAPTTPPTTPPTDSPGSAGEIVGTQSGRCIDVPNAARDNGTRVQLYDCNKQPNQSWTYTSNKQLQVYGDRCLDAAGSGNGAAVQIYSCHSQTNQQWNLNSNGTISNVQSGRCLDVWSTANGAQVQLYDCHGQTNQQFRLASRTR [DP061]”, the PET hydrolysis is below 3 in data set [1] (setting [4]); below 3 in data set [1] (setting [5]); below 3 in data set [1] (setting [6]); below 3 in data set [1] (substrate: aFilm, 40 °C, pH 8.5); below 3 in data set [1] (setting [7]); below 3 in data set [1] (setting [8]). Moreover, the PET hydrolysis in data set [1] (setting [9]) is below 3; in data set [1] (substrate: aFilm, 60 °C, pH 8.5), below 3; in data set [1] (setting [10]), 14 ± 2.8; in data set [1] (setting [11]), 20 ± 1.4; in data set [1] (setting [12]) it was 7.5 ± 5; in data set [1] (substrate: cryPow, 40 °C, pH 8.5), 2 ± 2.8. The PET hydrolysis in data set [1] (setting [13]) was below 3; in data set [1] (setting [14]), below 3; in data set [1] (setting [15]), below 3; in data set [1] (substrate: cryPow, 60 °C, pH 8.5), below 3. In addition, in data set [2], the “purified protein yield per well” value was 265 µg. In data set [3], this sequence gave a melting temperature of 59.8 C.
On to “QAPDRTALARTGPYQVAYYTQLPPAAEFSAATLFFPANKAQAFGGVVIAPGYTEKQVNVQWWGYHLASHGYAVLVLDTNDPEEYPDRRADALMAGVAVLRGENTRMGSTLRGKILEGRIALMGHSMGGGGTLLAANGHSDQLKTIIPFTPWLPGADFSAVSVPTLVLAGEIDRIAAVKDHAWPHYESLTGAVPRMYLEVKGGNHYIANSMTDREDRNPNIDVHDLVGSMVVAWLKTFLDDDESYRELVFGDLPEADRVRISRLEFVE [TEP006]”, for which the PET hydrolysis in data set [1] (setting [16]), in data set [1] (setting [4]), in data set [1] (setting [5]), in data set [1] (setting [6]), in data set [1] (setting [17]) and in data set [1] (setting [7]) was below 3 each time. The PET hydrolysis in data set [1] (setting [8]), in data set [1] (setting [9]), in data set [1] (setting [18]), in data set [1] (setting [10]), in data set [1] (setting [11]) and in data set [1] (setting [12]) was below 3 in each case. Further, the PET hydrolysis in data set [1] (setting [19]), in data set [1] (setting [13]), in data set [1] (setting [14]) and in data set [1] (setting [15]) was below 3 each time. Also, the “purified protein yield per well” value in data set [2] came out at 215 µg. The sequence also showed a melting temperature in data set [3] of 53.5 C.
Consider “ADNPYERGPAPTAASIAADRGPFATAQVTVPRGNGFGGGVIYYPTDTSQGTFGAIAIAPGFGTAWSYYAWQGPRLASFGFVVIGIETNTLNDYADARATQLLAALDYLVNSSPVRDRVDRNRLAVGGHSMGGGGAILAANQRPSLLTAVGQAPYVPDGSLATIKSPTIIFAGQADGTVTPQYAQNAYNTIPSSVERAYVEIANEGHGFPAGGGGGNSGAFARTMMIWMKLFIDKDTRYAPFLCPSLSNANGISKYMASCPLDPPGGGPTASPTASPTVSPTVSPSGTPPATSAIRGVGSGRCLDVNGASQANGAQAQIWDCNGQNNQKWTTTSAGELRVYGNKCLDVNGGGTADGTSVIIWDCNGQNNQKWRLNTDGTITAVGANKCLDVSGAGTANGTKVQIWTCNGQNNQKWTRT [ESM038]”, for which the PET hydrolysis is 4 in data set [1] (setting [18]); 10 in data set [1] (setting [10]); 16 in data set [1] (setting [11]); 19 in data set [1] (setting [12]); below 3 in data set [1] (setting [19]); below 3 in data set [1] (setting [13]). Besides, the PET hydrolysis was 4 in data set [1] (setting [14]) and 6 in data set [1] (setting [15]). Also, in data set [2], the “purified protein yield per well” value turned out to be 190 µg. Moreover, the melting temperature in data set [3] worked out at 68.8 C.
Take “RPAAPADSPYQRGPDPTVSSVAAQRGTFATAELTVPPGNGFNGGKIYYPTDTSQGTWAAVAAVPGYTAKWAAEGAWMGPWLASFGFVVIGIDTNSPNDYDTARGTQLLAALDYLTQRSPVRDRVDPGRLGVIGHSMGGGGAINAAERRPSLKAALPLAPFSPSQNLSTLRVPTMIMGARDDGTVTPSYLNGLYGGMPATTPSAYIELTSGGHGFPTWGNSNVTRRTIPWLKIFLDEDTRYTQFLCPSLPDRTGISRSQVTCGSVPGDGTTPPPATGRQVVGAASGRCLDVPGSSQANGTQLQLWDCLDQAGQKWARTDAGELRVLGGKCLDAEASGTAPGTRAVVWDCHGGTNQRWNVTPDGTITSAQSGLCLDAYNAGTANGTRTVLWTCNGGSNQRWTWR [TEP102]”: the PET hydrolysis in data set [1] (setting [16]), in data set [1] (setting [4]), in data set [1] (setting [5]), in data set [1] (setting [6]), in data set [1] (setting [17]) and in data set [1] (setting [7]) was below 3 in each case. The PET hydrolysis in data set [1] (setting [8]) was below 3; in data set [1] (setting [9]), below 3; in data set [1] (setting [18]) it was 5.5 ± 0.71; in data set [1] (setting [10]), 13 ± 2.8; in data set [1] (setting [11]), 25.5 ± 0.71; in data set [1] (setting [12]), 26 ± 1.4. For the same sequence, the PET hydrolysis in data set [1] (setting [19]), in data set [1] (setting [13]), in data set [1] (setting [14]) and in data set [1] (setting [15]) was below 3 in each case. In data set [2], the “purified protein yield per well” value was 252 µg. The sequence also displayed a melting temperature in data set [3] of 60.4 C.
As to “ADNPYERGPDPTRTSVATERGPFANTSVSVPTGYGFNGGRIYYPTDTSQGTFGAIAISPGYTALFSAELAWMGPWLASHGFVVIGIETNSRNDFDTARGTQLLAALDYLTQQSPVRDRVDASRLAVAGHSMGGGGALSAATRRPALKAAVGITPFSPSSNLANDRVPTMVISGQADTVVTPSYALDLYNSLPSTTESVYVEVAGGDHGFMVGRSNPVMIRTMLPFLKIFVDNDARYSQFLCPLMDNSGVVTYRSTCPLINTPTTPPPTSPPPTSPPPTSPPPTTPPPGSATQIVGVQSNRCIDVPNSSRNNGTRVQLYDCHGQTNQAWTYTANKQLQVYGNMCLDAAGTGNGAAVQIYSCHGGANQQWNVNSNGTISGVQSGRCLDVWSTSNGAQVQLYDCHGGTNQRFNLVAR [TEP082]”, the PET hydrolysis in data set [1] (setting [16]), in data set [1] (setting [4]), in data set [1] (setting [5]), in data set [1] (setting [6]), in data set [1] (setting [17]) and in data set [1] (setting [7]) was below 3 each time. The PET hydrolysis in data set [1] (setting [8]) was below 3; in data set [1] (setting [9]) it was below 3; in data set [1] (setting [18]), 6.5 ± 0.71; in data set [1] (setting [10]) it was 15 ± 1.4; in data set [1] (setting [11]) it was 39.5 ± 2.1; in data set [1] (setting [12]), 34 ± 1.4. The PET hydrolysis in data set [1] (setting [19]) is below 3; in data set [1] (setting [13]) it was 2 ± 2.8; in data set [1] (setting [14]), 6 ± 1.4; in data set [1] (setting [15]), 3.5 ± 0.71. In data set [2], the “purified protein yield per well” value amounted to 282 µg. The same sequence returned a melting temperature in data set [3] of 63.1 C.
